Where a chain is given by its changes, count along the chain named. Names and notes keep the numbering of the source.
B1: epsin1 ENTH domain, wild type (Rat Epsin1 WT ENTH 1-164) (domain or fragment)
chain: MSTSSLRRQMKNIVHNYSEAEIKVREATSNDPWGPSSSLMSEIADLTYNVVAFSEIMSMIWKRLNDHGKNWRHVYKAMTLMEYLIKTGSERVSQQCKENMYAVQTLKDFQYVDRDGKDQGVNVREKAKQLVALLRDEDRLREERAHALKTKEKLAQTATASSAA
B2: ENTH WT (C96A A155C) domain, labelled with Atto488 maleimide or Atto532 maleimide (domain or fragment)
chain: B1 chain with C96A, A155C
modifications: Atto488 maleimide (donor population) or Atto532 maleimide (acceptor population), by cysteine modification

Columns and labels:
[1] = target: the molecule itself; assay: SDS-resistant oligomer bands on SDS-PAGE after liposome co-sedimentation
FRET or BRET = target: the molecule itself; assay: FRET or BRET

Protein | binding result [1] | binding result (FRET or BRET)
B1 | binds | –
B2 | – | binds

From article doi:10.1101/2020.01.27.920827 (bioRxiv, 2020)
